Test [1] deals with ubiquitin tagged Ac-AChBP (Aplysia californica acetylcholine binding protein) (Aplysia californica). The experiment in a line: radioligand binding.
Test [2] has as its target de-tagged Ls-AChBP (Lymnaea stagnalis acetylcholine binding protein) (Lymnaea stagnalis) (UniProt P58154). Kind of test: radioligand binding.

One may read the Ki as a measure of affinity in units of concentration, obtained from inhibition or displacement. A high value points to a looser hold on the target. As to “alpha-conotoxin ImI (from UniProt P50983 5-17) (peptide)”, the Ki in test [1] was 3 nM; in test [2], over 10000 nM.

Regarding alpha-conotoxin LsIA (peptide), the inhibitory constant (Ki) is 11 nM in test [1] and 700 nM in test [2].

Source of the values: article PMC4909209.
